Eight molecules from patent publication US20120316071A1 (published 2012) can be followed below.

The target of test [1] is T1, Recombinant Human DLL4 (R&D Systems Cat#1506-D4/CF) (human, UniProt Q9NR61 27-524).
T1 construct: Bought recombinant protein; also called delta-like protein 4; Delta-like 4
Put plainly: ECL (Meso Scale Discovery) multispot binding assay, DLL4 immobilised, Fab at 100 nM.

Test [2] has as its target T2, Recombinant Human DLL4 (delta-like protein 4) (human, UniProt Q9NR61 27-524).
T2 construct: Bought recombinant human DLL4 coated on the ELISA plate; also called rHuman DLL4
Put plainly: ELISA, DLL4 coated on plate, Fab at 12.5 nM (2-fold dilution series), absorbance at 450 nm.

In test [3] the target is T2, Recombinant Human DLL4 (delta-like …). Put plainly: ELISA, DLL4 coated on plate, Fab at 50 nM (2-fold dilution series), absorbance at 450 nm. For orientation: ELISA stands for enzyme-linked immunosorbent assay.
For test [4] the target is unchanged. Put plainly: ELISA, DLL4 coated on plate, Fab at 25 nM (2-fold dilution series), absorbance at 450 nm.
For test [5] the target is unchanged. Briefly: ELISA, DLL4 coated on plate, Fab at 100 nM (2-fold dilution series), absorbance at 450 nm.

B1: Fab VH5-51_IGHD5-18*01>3_IGHJ4*01 G100K/G104T (H:KT) & V3-4_IGLJ1*01 G23A (Fab, V domains shown)
VH: EVQLVQSGAEVKKPGESLKISCKGSGYSFTSYWIGWVRQMPGKGLEWMGIIYPGDSDTRYSPSFQGQVTISADKSISTAYLQWSSLKASDTAMYYCARRKYSYTYDYFDYWGQGTLVTVSS
VL: QTVVTQEPSFSVSPGGTVTLTCALSSGSVSTSYYPSWYQQTPGQAPRTLIYSTNTRSSGVPDRFSGSILGNKAALTITGAQADDESDYYCVLYMGSGISYVFGTGTKVTVL
notes: Fab expressed in E. coli; Plasmid A adds CH1 with His6 and Flag tags to the heavy chain; Plasmid E adds lambda CL to the light chain; also called G100K/G104T & G23A
With B1, the “ECL signal” value in test [1] was determined as 13500.

B2: Fab VH5-51_IGHD5-18*01>3_IGHJ4*01 G100K/G104T (H:KT) & V3-4_IGLJ1*01 P35A (Fab, V domains shown)
VH: EVQLVQSGAEVKKPGESLKISCKGSGYSFTSYWIGWVRQMPGKGLEWMGIIYPGDSDTRYSPSFQGQVTISADKSISTAYLQWSSLKASDTAMYYCARRKYSYTYDYFDYWGQGTLVTVSS
VL: QTVVTQEPSFSVSPGGTVTLTCGLSSGSVSTSYYASWYQQTPGQAPRTLIYSTNTRSSGVPDRFSGSILGNKAALTITGAQADDESDYYCVLYMGSGISYVFGTGTKVTVL
notes: Fab expressed in E. coli; Plasmid A adds CH1 with His6 and Flag tags to the heavy chain; Plasmid E adds lambda CL to the light chain; also called G100K/G104T & P35A
In the case of B2, the “ECL signal” value in test [1] is 8260.

B3: Fab VH5-51_IGHD5-18*01>3_IGHJ4*01 G100K/G104T G24T/S28R/G35V (KT TRV) & V3-4_IGLJ1*01 V91L/S96P S52G (LP S52G) (Fab, V domains shown)
VH: EVQLVQSGAEVKKPGESLKISCKTSGYRFTSYWIVWVRQMPGKGLEWMGIIYPGDSDTRYSPSFQGQVTISADKSISTAYLQWSSLKASDTAMYYCARRKYSYTYDYFDYWGQGTLVTVSS
VL: QTVVTQEPSFSVSPGGTVTLTCGLSSGSVSTSYYPSWYQQTPGQAPRTLIYGTNTRSSGVPDRFSGSILGNKAALTITGAQADDESDYYCLLYMGPGISYVFGTGTKVTVL
notes: Fab; Expressed in E. coli with CH1 (plasmid A, His6 and Flag tags) and lambda CL (plasmid E); also called H:KT TRV & L:LP S52G
On to B3, for which the ELISA signal came to 0.63 in test [2], 1.02 in test [3], 0.9 in test [4] and 1.14 in test [5].

B4: Fab VH5-51_IGHD5-18*01>3_IGHJ4*01 G100K/G104T (H:KT) & V3-4_IGLJ1*01 S36A (Fab, V domains shown)
VH: EVQLVQSGAEVKKPGESLKISCKGSGYSFTSYWIGWVRQMPGKGLEWMGIIYPGDSDTRYSPSFQGQVTISADKSISTAYLQWSSLKASDTAMYYCARRKYSYTYDYFDYWGQGTLVTVSS
VL: QTVVTQEPSFSVSPGGTVTLTCGLSSGSVSTSYYPAWYQQTPGQAPRTLIYSTNTRSSGVPDRFSGSILGNKAALTITGAQADDESDYYCVLYMGSGISYVFGTGTKVTVL
notes: Fab expressed in E. coli; Plasmid A adds CH1 with His6 and Flag tags to the heavy chain; Plasmid E adds lambda CL to the light chain; also called G100K/G104T & S36A
Take B4: the “ECL signal” value in test [1] turned out to be 9690.

B5: Fab VH5-51_IGHD5-18*01>3_IGHJ4*01 G100K/G104T (H:KT) & V3-4_IGLJ1*01 S32A (Fab, V domains shown)
VH: EVQLVQSGAEVKKPGESLKISCKGSGYSFTSYWIGWVRQMPGKGLEWMGIIYPGDSDTRYSPSFQGQVTISADKSISTAYLQWSSLKASDTAMYYCARRKYSYTYDYFDYWGQGTLVTVSS
VL: QTVVTQEPSFSVSPGGTVTLTCGLSSGSVSTAYYPSWYQQTPGQAPRTLIYSTNTRSSGVPDRFSGSILGNKAALTITGAQADDESDYYCVLYMGSGISYVFGTGTKVTVL
notes: Fab expressed in E. coli; Plasmid A adds CH1 with His6 and Flag tags to the heavy chain; Plasmid E adds lambda CL to the light chain; also called G100K/G104T & S32A
For the molecule B5, the “ECL signal” value in test [1] turned out to be 10400.

B6: Fab VH5-51_IGHD5-18*01>3_IGHJ4*01 G100K/G104T (H:KT) & V3-4_IGLJ1*01 S28A (Fab, V domains shown)
VH: EVQLVQSGAEVKKPGESLKISCKGSGYSFTSYWIGWVRQMPGKGLEWMGIIYPGDSDTRYSPSFQGQVTISADKSISTAYLQWSSLKASDTAMYYCARRKYSYTYDYFDYWGQGTLVTVSS
VL: QTVVTQEPSFSVSPGGTVTLTCGLSSGAVSTSYYPSWYQQTPGQAPRTLIYSTNTRSSGVPDRFSGSILGNKAALTITGAQADDESDYYCVLYMGSGISYVFGTGTKVTVL
notes: Fab expressed in E. coli; Plasmid A adds CH1 with His6 and Flag tags to the heavy chain; Plasmid E adds lambda CL to the light chain; also called G100K/G104T & S28A (light chain)
Regarding B6, the “ECL signal” value in test [1] was determined as 11500.

B7: Fab VH5-51_IGHD5-18*01>3_IGHJ4*01 G104T & V3-4_IGLJ1*01 (wildtype) (Fab, V domains shown)
VH: EVQLVQSGAEVKKPGESLKISCKGSGYSFTSYWIGWVRQMPGKGLEWMGIIYPGDSDTRYSPSFQGQVTISADKSISTAYLQWSSLKASDTAMYYCARRGYSYTYDYFDYWGQGTLVTVSS
VL: QTVVTQEPSFSVSPGGTVTLTCGLSSGSVSTSYYPSWYQQTPGQAPRTLIYSTNTRSSGVPDRFSGSILGNKAALTITGAQADDESDYYCVLYMGSGISYVFGTGTKVTVL
notes: Fab; Expressed in E. coli with CH1 (plasmid A, His6 and Flag tags) and lambda CL (plasmid E); also called G104T & Wildtype
On to B7, for which the ELISA signal was 0.19 in test [2], 0.17 in test [3], 0.18 in test [4] and 0.17 in test [5].

B8: Fab VH5-51_IGHD5-18*01>3_IGHJ4*01 G100K/G104T S28R (KT S28R) & V3-4_IGLJ1*01 (wildtype) (Fab, V domains shown)
VH: EVQLVQSGAEVKKPGESLKISCKGSGYRFTSYWIGWVRQMPGKGLEWMGIIYPGDSDTRYSPSFQGQVTISADKSISTAYLQWSSLKASDTAMYYCARRKYSYTYDYFDYWGQGTLVTVSS
VL: QTVVTQEPSFSVSPGGTVTLTCGLSSGSVSTSYYPSWYQQTPGQAPRTLIYSTNTRSSGVPDRFSGSILGNKAALTITGAQADDESDYYCVLYMGSGISYVFGTGTKVTVL
notes: Fab; Expressed in E. coli with CH1 (plasmid A, His6 and Flag tags) and lambda CL (plasmid E); also called H:KT S28R & L:wt
Regarding B8, the ELISA signal in test [2] was determined as 0.18; in test [3], 0.23; in test [4] it was 0.2; in test [5], 0.26.
